The results in this text go back to patent publication US20090252683A1 (Amgen, published 2009).

The target in experiment [1] is T1, human CAIX antigen on A549 cells (human, UniProt Q16790 38-459). Nature of the experiment: FACS, A549 cells, 1 µg/ml purified protein (FIG. 28).
For experiment [2], the target named is T2, human EpCAM antigen on Kato III cells or human EpCAM transfected CHO cells (human, UniProt P16422 24-265).
T2 construct: 137 holds only the extracellular portion; the protein stood whole on cells
T2 sequence: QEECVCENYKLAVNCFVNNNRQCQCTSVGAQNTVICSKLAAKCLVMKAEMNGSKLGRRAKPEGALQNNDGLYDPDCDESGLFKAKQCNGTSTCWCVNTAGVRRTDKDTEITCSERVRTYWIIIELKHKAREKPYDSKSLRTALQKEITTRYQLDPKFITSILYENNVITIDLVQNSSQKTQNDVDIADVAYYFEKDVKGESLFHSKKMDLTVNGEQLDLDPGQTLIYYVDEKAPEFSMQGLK
The experiment is described as follows: FACS, Kato III cells or human EpCAM transfected CHO cells, anti-His detection. Here is the method: FIG. 3: FACS assay for binding of 5-10LH×SEQ ID NO. 12, 5-10LH×SEQ ID NO. 10, 5-10LH×SEQ ID NO. 16 and 5-10LH×SEQ ID NO. 14 to human Kato III cells expressing EpCAM or human EpCAM transfected CHO cells and to HPB-ALL cells. Cells bound by the respective constructs (depicted as non-filled curves) are shown in comparison to cells incubated only with the detection antibodies (depicted as filled curves). Antigen binding of all bispecific constructs was clearly detectable for the anti human EpCAM specificity as well as for the anti CD3 specificities on the HPB-ALL cell line positive for human CD3.
Binding of the bifunctional constructs to the EpCAM antigen on human Kato III cells expressing EpCAM (ATCC No. HTB-103) or on human EpCAM transfected CHO cells and to the human CD3 antigen on HPB-ALL cells was tested using an FACS assay. For that purpose 2.5×10⁵ cells were incubated with 50 μl of cell culture supernatant containing the construct. The binding of the construct was detected with an anti-His antibody (Penta-His Antibody, BSA free, obtained from Qiagen GmbH, Hilden, FRG) at 2 μg/ml in 50 μl PBS with 2% FCS. […] The samples were measured on a FACSscan (BD biosciences, Heidelberg, FRG). Antigen binding was clearly detectable for the anti human EpCAM specificity as well as for the anti CD3 specificities on the cell line positive for human CD3 (see FIG. 3).

Experiment [3] addresses T1, human CAIX antigen on A549 cells. Nature of the experiment: FACS, A549 cells, 1 µg/ml purified protein (FIG. 27).
The target in another experiment is T3, EFSELEQSGYYVC-biotin (human).
T3 construct: also called 13mer peptide of human CD3 epsilon, biotinylated C-terminally; peptide (2)
T3 peptide: EFSELEQSGYYVC-biotin
Nature of the experiment: dot blot, 75 µg peptide on nitrocellulose, 3 µg/ml antibody. The text has this:
(§1) To verify the epitope of the human-like cross-species specific anti-CD3 antibody fragment described in Example 16 on human CD3 epsilon, the identified binding region as determined in Experiment 18 was further analyzed by a dot-blotting assay using a 13mer peptide covering the defined binding area of amino acid residues “FSELE” on human CD3 epsilon. This peptide comprises the amino acid sequence “[…]” (SEQ ID NO. 195) of human CD3 epsilon. The peptide exists in two forms and is either biotinylated N- or C-terminally. In case of the N-terminal labelling, a short linker connects the peptide with the biotin. As described in Example 18, the antibody fragment was converted to a murine IgG format with a murine gammal heavy chain comprising the VH region as shown in SEQ ID NO. 110 and a kappa light chain comprising the VL region as shown in SEQ ID NO. 168. The dot blotting was performed as follows. The Minifold I Spot Blot System from Schleicher & Schuell was used for immobilizing the peptides on a nitrocellulose membrane (Protran BA 85, 0.45 μm). 75 μg of each peptide in 100 μl TBS were filtered through the membrane using vacuum. After the filtration step the membrane was blocked with 1×TBS/1% (w/v) blocking reagent (BM Chemiluminescence Blotting Substrate (POD) of Roche Diagnostics GmbH) for 2 h. […]

For experiment [4], the target named is T4, biotin-linker-EFSELEQSGYYVC (human, reading uncertain; also: short linker, not given here, printed as biotin-linker-EFSELEQSGYYVC).
T4 construct: also called 13mer peptide of human CD3 epsilon, biotinylated N-terminally; peptide (1)
T4 peptide: {Biotin-linker}-EFSELEQSGYYVC
The description is as above.
Source text: as §1

For experiment [5], the target named is T1, human CAIX antigen on A549 cells. The experiment is described as follows: FACS, A549 cells, 1 µg/ml purified protein (FIG. 26). Here is the method: FIG. 26: FACS binding analysis of cross-species specific bispecific single chain construct CAIX HL×SEQ ID NO. 194 to HPB-ALL (human CD3+), cynomolgus PBMC (cynomolgus CD3+), A549 (human CAIX+) and CYNOM-KI (cynomolgus CAIX+) cells, respectively. The FACS staining was performed as described in Example 23. The thick line represents cells incubated with 1 μg/ml purified monomeric protein that were subsequently incubated with the anti-his antibody and the PE labeled detection antibody. The thin histogram line reflects the negative control: cells only incubated with the anti-his antibody and the detection antibody.
In order to test the functionality of the cross-species specific bispecific antibody constructs with regard to binding capability to human and cynomolgus EGFR and CD3, respectively, a FACS analysis was performed. For this purpose the EGFR positive epidermoid carcinoma A431 cells (ATCC, CRL-1555) and CD3 positive human T cell leukemia cell line HPB-ALL (DSMZ, Braunschweig, ACC483) were used to check the binding to human antigens. […] The cells were washed twice in PBS and binding of the construct was detected with an unlabeled murine Penta His antibody (diluted 1:20 in 50 μl PBS with 2% FCS; Qiagen; Order No. 34660). After washing, bound anti His antibodies were detected with an Fc gamma-specific antibody (Dianova) conjugated to phycoerythrin, diluted 1:100 in 50 μl PBS with 2% FCS. […]

No end group written: not given here. *: point of attachment. Biotin = O=C1N[C@H]2[C@H](CS[C@H]2CCCCC(=O)*)N1; linker = not defined here

B1: CAIX LH × SEQ ID NO. 170 (bispecific antibody)
chain: DIVMTQSQRFMSTTVGDRVSITCKASQNVVSAVAWYQQKPGQSPKLLIYSASNRYTGVPDRFTGSGSGTDFTLTISNMQSEDLADFFCQQYSNYPWTFGGGTKLEIKGGGGSGGGGSGGGGSDVKLVESGGGLVKLGGSLKLSCAASGFTFSNYYMSWVRQTPEKRLELVAAINSDGGITYYLDTVKGRFTISRDNAKNTLYLQMSSLKSEDTALFYCARHRSGYFSMDYWGQGTSVTVSSSGGGGSEVQLVESGGGLVQPGGSLKLSCAASGFTFNTYAMNWVRQAPGKGLEWVARIRSKYNNYATYYADSVKDRFTISRDDSKNTAYLQMNNLKTEDTAVYYCVRHGNFGNSYVSWFAYWGQGTLVTVSSGGGGSGGGGSGGGGSQTVVTQEPSLTVSPGGTVTLTCRSSTGAVTTSNYANWVQQKPGQAPRGLIGGTNKRAPGTPARFSGSLLGGKAALTLSGVQPEDEAEYYCALWYSNLWVFGGGTKLTVLHHHHHH
notes: the appendix prints the entry with HHHHHH and then *VD at its end
Take B1: the binding result in experiment [1] is “binds”.

B2: 5-10LH×SEQ ID NO. 16 bispecific single chain antibody (bispecific antibody)
chain: ELVMTQSPSSLTVTAGEKVTMSCKSSQSLLNSGNQKNYLTWYQQKPGQPPKLLIYWASTRESGVPDRFTGSGSGTDFTLTISSVQAEDLAVYYCQNDYSYPLTFGAGTKLEIKGGGGSGGGGSGGGGSEVQLLEQSGAELVRPGTSVKISCKASGYAFTNYWLGWVKQRPGHGLEWIGDIFPGSGNIHYNEKFKGKATLTADKSSSTAYMQLSSLTFEDSAVYFCARLRNWDEPMDYWGQGTTVTVSSGGGGSQVVLTQSPAIMSAFPGEKVTMTCSASSSVSYMNWYQQKSGTSPKRWIYDSSKLASGVPARFSGSGSGTSYSLTISSMETEDAATYYCQQWSRNPPTFGGGTKLQITGGGGSGGGGSGGGGSQVQLQQSGAELARPGASVKMSCKASGYTFTRSTMHWVKQRPGQGLEWIGYINPSSAYTNYNQKFKDKATLTADKSSSTAYMQLSSLTSEDSAVYYCASPQVHYDYNGFPYWGQGTLVTVSAHHHHHH
For the molecule B2, the binding result in experiment [2] is recorded as “binds”.

B3: CAIX HL × SEQ ID NO. 170 (bispecific antibody)
chain: DVKLVESGGGLVKLGGSLKLSCAASGFTFSNYYMSWVRQTPEKRLELVAAINSDGGITYYLDTVKGRFTISRDNAKNTLYLQMSSLKSEDTALFYCARHRSGYFSMDYWGQGTSVTVSSGGGGSGGGGSGGGGSDIVMTQSQRFMSTTVGDRVSITCKASQNVVSAVAWYQQKPGQSPKLLIYSASNRYTGVPDRFTGSGSGTDFTLTISNMQSEDLADFFCQQYSNYPWTFGGGTKLEIKSGGGGSEVQLVESGGGLVQPGGSLKLSCAASGFTFNTYAMNWVRQAPGKGLEWVARIRSKYNNYATYYADSVKDRFTISRDDSKNTAYLQMNNLKTEDTAVYYCVRHGNFGNSYVSWFAYWGQGTLVTVSSGGGGSGGGGSGGGGSQTVVTQEPSLTVSPGGTVTLTCRSSTGAVTTSNYANWVQQKPGQAPRGLIGGTNKRAPGTPARFSGSLLGGKAALTLSGVQPEDEAEYYCALWYSNLWVFGGGTKLTVLHHHHHH
notes: as for B1
As to B3, the binding result in experiment [3] is “binds”.

B4: cross-species specific anti-CD3 antibody (murine IgG1 comprising the VH chain shown in SEQ ID NO. 110 and the VL chain shown in SEQ ID NO. 168) (antibody, V domains shown)
VH: EVQLLESGGGLVQPGGSLKLSCAASGFTFNTYAMNWVRQAPGKGLEWVARIRSKYNNYATYYADSVKDRFTISRDDSKNTAYLQMNNLKTEDTAVYYCVRHGNFGNSYVSWFAYWGQGTLVTVSS
VL: ELVVTQEPSLTVSPGGTVTLTCRSSTGAVTTSNYANWVQQKPGQAPRGLIGGTNKRAPGTPARFSGSLLGGKAALTLSGVQPEDEAEYYCALWYSNLWVFGGGTKLTVL
notes: full IgG with a murine gamma1 heavy chain and a kappa light chain; also called human-like cross-species specific anti-CD3 antibody; cross-species specific anti-CD3 IgG1 antibody
B4: the binding result (with EFSELEQSGYYVC-biotin; in experiment [4]) was “binds” throughout.

B5: CAIX HL × SEQ ID NO. 194 (bispecific antibody)
chain: DVKLVESGGGLVKLGGSLKLSCAASGFTFSNYYMSWVRQTPEKRLELVAAINSDGGITYYLDTVKGRFTISRDNAKNTLYLQMSSLKSEDTALFYCARHRSGYFSMDYWGQGTSVTVSSGGGGSGGGGSGGGGSDIVMTQSQRFMSTTVGDRVSITCKASQNVVSAVAWYQQKPGQSPKLLIYSASNRYTGVPDRFTGSGSGTDFTLTISNMQSEDLADFFCQQYSNYPWTFGGGTKLEIKSGGGGSQTVVTQEPSLTVSPGGTVTLTCRSSTGAVTTSNYANWVQQKPGQAPRGLIGGTNKRAPGTPARFSGSLLGGKAALTLSGVQPEDEAEYYCALWYSNLWVFGGGTKLTVLGGGGSGGGGSGGGGSEVQLVESGGGLVQPGGSLKLSCAASGFTFNTYAMNWVRQAPGKGLEWVARIRSKYNNYATYYADSVKDRFTISRDDSKNTAYLQMNNLKTEDTAVYYCVRHGNFGNSYVSWFAYWGQGTLVTVSSHHHHHH
notes: as for B1
For the molecule B5, in experiment [5], the binding result is “binds”.
